This test concerns the target CD18 (Integrin beta-2) (human) (UniProt P05107). Briefly: cell-based or functional assay.

Bounds are passed on as bounds.

Chain of UniProt P05107 (P05107 23-769): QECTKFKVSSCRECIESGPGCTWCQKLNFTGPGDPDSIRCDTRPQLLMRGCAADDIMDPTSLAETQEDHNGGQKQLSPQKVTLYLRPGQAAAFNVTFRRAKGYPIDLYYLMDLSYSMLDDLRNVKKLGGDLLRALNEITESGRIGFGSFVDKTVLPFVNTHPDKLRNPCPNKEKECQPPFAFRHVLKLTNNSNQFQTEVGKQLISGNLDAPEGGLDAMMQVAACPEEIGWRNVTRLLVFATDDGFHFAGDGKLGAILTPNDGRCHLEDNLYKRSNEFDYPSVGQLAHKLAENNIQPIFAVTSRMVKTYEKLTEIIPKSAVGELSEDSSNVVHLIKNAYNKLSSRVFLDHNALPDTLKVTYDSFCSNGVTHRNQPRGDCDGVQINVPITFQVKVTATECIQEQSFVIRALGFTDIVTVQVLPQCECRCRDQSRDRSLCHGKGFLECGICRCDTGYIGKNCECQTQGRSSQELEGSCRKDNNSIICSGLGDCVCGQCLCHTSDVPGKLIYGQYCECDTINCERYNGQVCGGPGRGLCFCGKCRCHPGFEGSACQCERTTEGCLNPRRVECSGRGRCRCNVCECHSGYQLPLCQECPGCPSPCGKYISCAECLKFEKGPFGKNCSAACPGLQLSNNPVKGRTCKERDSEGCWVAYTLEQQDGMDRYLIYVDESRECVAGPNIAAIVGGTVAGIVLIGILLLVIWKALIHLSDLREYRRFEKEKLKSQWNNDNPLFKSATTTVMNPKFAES

anti-CD18 antibody molecule TS 1/18: the 3H-thymidine uptake (cpm), PBMC + HUVEC + PSMA×CD3, off target activation (FIG. 3A; control about 30000 cpm) is less than 10000 cpm.

For the origin of these results see patent US20170362325A1.
